# Patent US8168592B2 (Amgen Inc., priority 2005, dated 2012)
# Entries after “also recorded” stand apart in the source; their conditions may differ. Like-named read-outs stand apart in the source and are kept apart here. PEG = not defined here
# Legend:
# CGRP1 receptor [1] = biological target: T1, CGRP1 receptor (Rattus norvegicus, UniProt Q63118+Q9JJ74); assay: laser Doppler blood flowmetry assay (hαCGRP-induced skin blood flow); format: in vivo; details: i.v., pre-treatment 5 minutes
# T1 construct: from tissue; host or cells: living anaesthetised rat, abdominal skin
# T1 sequence (Q63118 24-464): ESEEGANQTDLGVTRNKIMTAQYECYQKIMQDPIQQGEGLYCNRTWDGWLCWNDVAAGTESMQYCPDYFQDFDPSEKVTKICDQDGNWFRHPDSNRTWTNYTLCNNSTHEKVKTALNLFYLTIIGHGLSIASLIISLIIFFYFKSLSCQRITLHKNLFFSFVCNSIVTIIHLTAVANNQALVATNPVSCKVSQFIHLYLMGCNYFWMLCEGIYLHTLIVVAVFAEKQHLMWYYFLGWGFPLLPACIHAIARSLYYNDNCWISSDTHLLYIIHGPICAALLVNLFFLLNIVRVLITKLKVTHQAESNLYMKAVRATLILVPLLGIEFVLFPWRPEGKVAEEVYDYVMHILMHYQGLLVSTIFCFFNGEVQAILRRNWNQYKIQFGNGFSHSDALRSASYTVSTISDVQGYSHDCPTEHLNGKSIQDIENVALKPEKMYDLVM
# T1 sequence (Q9JJ74 27-148): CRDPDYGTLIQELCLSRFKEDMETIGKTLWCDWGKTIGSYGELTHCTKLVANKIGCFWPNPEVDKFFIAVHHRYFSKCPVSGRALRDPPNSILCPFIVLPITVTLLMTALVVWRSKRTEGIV
# Description: Methods. An automated laser Doppler blood flowmetry device is used (MoorLDI®; Moor Instrument, Devon, UK). The device was turned on prior to the start of experiments and allowed to warm up for 20 minutes. Blood flow data (in FLUX) were read from software records (see below).
# For each rat, the experimental procedure was performed within a single day and was each rat was sacrificed on the same day immediately after the experiment was over. On an experiment day, each rat was weighed and administered 1 ml/kg (intramuscular injection in right leg) of an anesthetic cocktail consisting of Ketamine, Xylazine and PBS (5:3:2). […] A small dot was placed near the center of the abdomen using a marker. The animal was then ready for the experiment.
# Approximately 20 min after the injection of the anesthetic cocktail, baseline blood flow readings were collected for each animal. Each rat was placed under the laser Doppler scanning device, matching the laser with the marker dot on the abdomen. Using the device's software package, the device was activated and the surface of the abdomen was scanned for 1 min with the laser. The scan area was 4 cm×4 cm. […]
# In some cases, plasma IC50 values were calculated by performing least squares linear regression on log plasma concentration values (nM) vs. % change in blood flow values calculated for individual rats.
# [2] = solubility in aqueous conjugation buffers; format: physicochemical
# Description: Co-solvent mediated conjugation of vehicle to CGRP peptide antagonists. […] In an attempt to better solubilize these less soluble peptides during the conjugation reaction, and thereby improve conjugate yields, a variety of alcohol co-solvents were tested in the conjugation reaction.
# [3] = in vivo metabolic identification in monkey plasma during intravenous infusion; set-up: species or system Cynomolgus monkey; details: 20 min during intravenous infusion
# From the text: Monkey pharmacokinetic studies.
# Samples were taken as described above. After thawing, each 100-11 plasma sample was extracted by solid phase extraction. Extracted samples were collected for LC-MS/MS analysis.
# [4] = in vitro metabolic identification in 100% monkey plasma, LC-MS/MS; format: in vitro ADME; details: 100% Cynomolgus monkey plasma, 4 hours
# From the text: Extracted samples were collected for LC-MS/MS analysis.
# (Also, see Example 7 herein below for comparison with in vivo metabolic identification.)
# [5] = rat plasma (10% rat plasma in the legend of FIG. 2); details: room temperature, up to 1 hour
# [6] = rat, in vivo, 2 mg/kg
# Description: Rat pharmacokinetic studies. […] There were three rats per group (n=3), each weighing 250-325 g. Each group received either a 2 mg/kg intravenous or subcutaneous discrete administration. The approximate dose volume was 0.3 mL per rat. Approximately 0.25 mL of whole blood was taken per time point at the following post-dose collection times for the intravenous groups (in hours): 0.083, 0.25, 0.5, 1, 2, 4, 6, 8, 24, 48, 72, 96 and the following time points for the subcutaneous groups (in hours): 0.25, 0.5, 1, 2, 4, 6, 8, 24, 48, 72, 96. Whole blood samples were collected in microtainer vials containing EDTA as anticoagulant and were kept on wet ice until processed for plasma. The plasma was obtained by centrifuging the whole blood for approximately 5 min at 11,500 rpm. Plasma was transferred to new tubes and stored frozen at approximately −70° C. until quantitative analysis. […] The individual sample concentrations for each time point were averaged (n=3) within a given dose group using Excel 2000 software. The averaged plasma concentration-time data were analyzed by noncompartmental methods using WinNonlin v.3.3 software. Nominal sample times were used in the pharmacokinetic analysis. The area under the concentration-time curve was calculated using the linear/log trapezoidal method to determine exposure.
# [7] = stability in undiluted rat plasma at 37° C. by ELISA; format: in vitro ADME
# From the text: (§1) Examples of this approach are the replacement of arginine (R) with citrulline, and phenylalanine (F) with 3-(1-naphthyl)alanine. We have also cyclized side-chain to side-chain (for example, i, i+4 residues) to form ring structures which also increase overall plasma stability (See, e.g., FIG. 3 and FIG. 13).
# [8] = stability in undiluted Cynomolgus plasma at 37° C. by ELISA; format: in vitro ADME; details: cynomolgus monkey
# From the text: as §1
# [9] = stability in undiluted human plasma at 37° C. by ELISA; format: in vitro ADME
# From the text: as §1
# [10] = 100% Cynomolgus monkey plasma; details: room temperature, up to 4 hour
# [11] = monkey plasma during 30 minutes of intravenous infusion; details: Cynomolgus monkeys (Macaca fascicularis), up to 20 min during the infusion
# 100% human plasma = details: room temperature, up to 4 hour
# [12] = mouse
# Description: Peptide samples at 2 mg/ml in PBS were spiked with 5% mouse plasma and analyzed by sandwich ELISA (as described in Example 3 herein above) over 48 hours at room temperature. Peptide integrity was determined by sandwich ELISA requiring intact peptide termini.
# CGRP1 receptor [13] = biological target: T2, CGRP1 receptor (Homo sapiens, UniProt O60894+Q16602); assay: in vitro CGRP1 receptor mediated cAMP assay in SK-N-MC cells; format: cell-based; details: cAMP assay
# T2 construct: SK-N-MC cells express CRLR and RAMP1, which form CGRP1 receptor; endogenous in cells; host or cells: SK-N-MC human neuroblastoma cells
# T2 sequence (Q16602 23-461): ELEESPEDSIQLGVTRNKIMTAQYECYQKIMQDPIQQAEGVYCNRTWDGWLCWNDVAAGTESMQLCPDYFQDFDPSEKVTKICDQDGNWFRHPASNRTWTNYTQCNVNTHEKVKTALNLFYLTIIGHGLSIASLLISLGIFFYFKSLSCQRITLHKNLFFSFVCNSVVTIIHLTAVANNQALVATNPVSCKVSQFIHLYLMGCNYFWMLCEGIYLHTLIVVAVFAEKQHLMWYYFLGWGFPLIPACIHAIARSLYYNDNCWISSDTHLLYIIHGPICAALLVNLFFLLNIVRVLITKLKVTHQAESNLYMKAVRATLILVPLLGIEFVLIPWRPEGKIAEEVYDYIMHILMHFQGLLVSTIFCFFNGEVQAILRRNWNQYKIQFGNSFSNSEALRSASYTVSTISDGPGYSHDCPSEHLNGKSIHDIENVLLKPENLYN
# T2 sequence (O60894 27-148): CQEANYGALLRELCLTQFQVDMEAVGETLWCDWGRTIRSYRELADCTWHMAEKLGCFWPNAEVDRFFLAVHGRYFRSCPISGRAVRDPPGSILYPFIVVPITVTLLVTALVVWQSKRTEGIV
# Method in brief: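 Intracellular cAMP served as the Gs-coupled CGRP1 readout in endogenously expressing SK-N-MC cells. After a 15-minute room-temperature step in plasma-free medium, cell lysates (30 minutes, 37° C) went into a competitive ELISA with a cAMP-AP conjugate and anti-cAMP antibody for 1 hour, then a 30-minute substrate enhancer step before reading.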
# rat CGRP1 receptor = rat CGRP1 receptor (Rattus norvegicus, UniProt Q63118+Q9JJ74); assay: in vitro functional potency against the rat ortholog of the CGRP1 receptor; format: cell-based
# Chain of rat CGRP1 receptor (Q63118 24-464): as the sequence (Q63118 24-464) above
# Chain of rat CGRP1 receptor (Q9JJ74 27-148): as the sequence (Q9JJ74 27-148) above
# From the text: Results and Conclusions. […] This was reflected by an apparently similar rightward shift in potency in vivo.
compound,measurement,setting,value
CC(=O)N[C@@H](Cc1c[nH]c2ccccc12)C(=O)N[C@H](C(=O)N[C@H](C(=O)N[C@@H](Cc1c[nH]cn1)C(=O)N[C@@H](CCCNC(N)=O)C(=O)N[C@@H](CC(C)C)C(=O)N[C@@H](C)C(=O)NCC(=O)N[C@@H](CC(C)C)C(=O)N[C@@H](CC(C)C)C(=O)N[C@@H](CO)C(=O)N[C@@H](CCCNC(N)=O)C(=O)N[C@@H](CO)C(=O)NCC(=O)NCC(=O)N[C@H](C(=O)N[C@H](C(=O)N[C@@H](CCCCNC(=N)N)C(=O)N[C@@H](CCCCN)C(=O)N[C@@H](CC(N)=O)C(=O)N[C@@H](Cc1ccccc1)C(=O)N[C@H](C(=O)N1CCC[C@H]1C(=O)N[C@H](C(=O)N[C@@H](CC(=O)O)C(=O)N[C@H](C(=O)NCC(=O)N1CCC[C@H]1C(=O)N[C@@H](Cc1ccccc1)C(=O)N[C@@H](C)C(=O)N[C@@H](Cc1ccccc1)C(N)=O)C(C)C)[C@@H](C)O)C(C)C)C(C)C)C(C)C)[C@@H](C)O)C(C)C [Compound 739],Efficacy observed (%) (at highest dose tested),CGRP1 receptor [1]; 6 mg/kg,100%
CC(=O)N[C@@H](Cc1c[nH]c2ccccc12)C(=O)N[C@H](C(=O)N[C@H](C(=O)N[C@@H](Cc1c[nH]cn1)C(=O)N[C@@H](CCCNC(=N)N)C(=O)N[C@@H](CC(C)C)C(=O)N[C@@H](C)C(=O)NCC(=O)N[C@@H](CC(C)C)C(=O)N[C@@H](CC(C)C)C(=O)N[C@@H](CO)C(=O)N[C@@H](CCCNC(=N)N)C(=O)N[C@@H](CO)C(=O)NCC(=O)NCC(=O)N[C@H](C(=O)N[C@H](C(=O)N[C@@H](CCCNC(=N)N)C(=O)N[C@@H](CCCCN)C(=O)N[C@@H](CC(N)=O)C(=O)N[C@@H](Cc1ccccc1)C(=O)N[C@H](C(=O)N1CCC[C@H]1C(=O)N[C@H](C(=O)N[C@@H](CC(=O)O)C(=O)N[C@H](C(=O)NCC(=O)N1CCC[C@H]1C(=O)N[C@@H](Cc1ccccc1)C(=O)N[C@@H](C)C(=O)N[C@@H](Cc1ccccc1)C(N)=O)C(C)C)[C@@H](C)O)C(C)C)C(C)C)C(C)C)[C@@H](C)O)C(C)C [Compound 808],Efficacy observed (%) (at highest dose tested),CGRP1 receptor [1]; 0.6 mg/kg,100%
CC(=O)N[C@@H](Cc1c[nH]c2ccccc12)C(=O)N[C@H](C(=O)N[C@H](C(=O)N[C@@H](Cc1c[nH]cn1)C(=O)N[C@@H](CCCNC(N)=O)C(=O)N[C@@H](CC(C)C)C(=O)N[C@@H](C)C(=O)NCC(=O)N[C@@H](CC(C)C)C(=O)N[C@@H](CC(C)C)C(=O)N[C@@H](CO)C(=O)N[C@@H](CCCNC(N)=O)C(=O)N[C@@H](CO)C(=O)NCC(=O)NCC(=O)N[C@H](C(=O)N[C@H](C(=O)N[C@@H](CCCCNC(=N)N)C(=O)N[C@@H](CCCCN)C(=O)N[C@@H](CC(N)=O)C(=O)N[C@@H](Cc1ccccc1)C(=O)N[C@H](C(=O)N1CCC[C@H]1C(=O)N[C@H](C(=O)N[C@@H](CC(=O)O)C(=O)N[C@H](C(=O)NCC(=O)N1[C@H](C(=O)N[C@@H](Cc2ccccc2)C(=O)N[C@@H](C)C(=O)N[C@@H](Cc2ccccc2)C(N)=O)C[C@@H]2CCCC[C@@H]21)C(C)C)[C@@H](C)O)C(C)C)C(C)C)C(C)C)[C@@H](C)O)C(C)C [SEQ ID NO:658],solubility in words,[2],relatively insoluble
same,degradation products in vivo,[3],"fragments W7-T9, T30-A36, W7-N26, T30-F37 and W7-hR24"
same,major degradation product,[4],fragment W7-K25
Ac-WVTHRLAGLLSRSGGVVRKNFVPTDVGPFAF-NH2,cleaved bond,[5],"L16-S17, major; also recorded: S17-R18, major; also recorded: R18-S19, major"
"Ac-WVTH[Cit]LAGLLS[Cit]SGGVV[hArg]K(20 KPEGald)NFVPTDVGP[1-Nal]AF-NH2 (WVTHXLAGLLSXSGGVVXKNFVPTDVGPXAF; not fully specified; N-acetyl, C-amide, 20 kDa PEG, Cit, hArg, 1-Nal; CGRP peptide; MOD_RES (1)..(1): …ON; MISC_FEATURE (5)..(5): xaa=citrulline; MISC_FEATURE (12)..(12): xaa=citrulline; MISC_FEATURE (18)..(18): xaa=homoarginine; MISC_FEATURE (19)..(19): PEGylated; MISC_FEATURE (29)..(29): xaa=3-(1-naphthyl)alanine; MOD_RES (31)..(31): AMI) [SEQ ID NO: 173]",AUC0-inf,[6]; iv,80.996 µg·h/mL
same,AUC0-t,[6]; iv,80.44 µg·h/mL
same,MRT,[6]; iv,4.97 h
same,AUC0-t,[6]; sc,4.385 µg·h/mL
same,F %,[6]; sc,5%
same,t1/2 in rat plasma,[7],8 to 9 h
same,t1/2 in Cynomolgus plasma,[8],>24 h
same,t1/2 in human plasma,[9],>24 h
Ac-WVTH[Cit]LAGLLS[Cit]SGGVV[hArg]KNFVPTDVG[Oic]FAF-NH2,fragment found,[10],"W7-K25, major"
same,fragment found,[11],"W7-T9, 20 min during the infusion; also recorded: T30-A36, 20 min during the infusion; also recorded: W7-N26, 20 min during the infusion; also recorded: T30-F37, 20 min during the infusion; also recorded: W7-hR24, 20 min during the infusion"
same,fragment found,100% human plasma,"W7-hR24, major"
SEQ ID NO:15 (Ac-WVTHRLAGLLSRSGGVVRK(PEG)NFVPTDVGPFAF-NH2; reading uncertain),half-life longer than the non-PEGylated parent peptide,[12],more than 9 fold
same,improved potency relative to native CGRP(8-37) (SEQ ID NO:1),CGRP1 receptor [13],about 12 fold
same,loss in antagonist activity on PEGylation relative to the unconjugated parent peptide,CGRP1 receptor [13],three
SEQ ID NO:791 (WVTHXLAGLLSXSGGVVRKNFVPTDVGPFAF; not fully specified; CGRP peptide; MOD_RES (1)..(1): …ON; MISC_FEATURE (5)..(5): xaa=citrulline; MISC_FEATURE (12)..(12): xaa=citrulline; MISC_FEATURE (19)..(19): PEGylated; MOD_RES (31)..(31): AMIDATION),rightward shift of in vitro potency compared with SEQ ID NO:31,rat CGRP1 receptor,approximately 9 fold
